In patent US20090221691A1 (UNIVERSITY OF ROCHESTER, published 2009):
Where two headings read alike, the source gives them in different places.

B1: phage C1 (SCKRTKAQILLAPCT) (peptide)
peptide: SCKRTKAQILLAPCT
notes: Group I; also called Cl
B2: phage C5 (SCEKRLGVRSCT) (peptide)
peptide: SCEKRLGVRSCT
notes: Group III
B3: phage 2F (LCSKAYLLLGQTC) (peptide)
peptide: LCSKAYLLLGQTC
notes: Group I
B4: phage C2 (WCPPKLEQWYDGCA) (peptide)
peptide: WCPPKLEQWYDGCA
notes: Group IV
B5: phage 3.14 (SIGKALFILGYPDYD) (peptide)
peptide: SIGKALFILGYPDYD
B6: phage 3C (SCGHGLKVQSTIGACA) (peptide)
peptide: SCGHGLKVQSTIGACA
notes: Group II
B7: phage C14 (WCPPKAMTQLGIKAC) (peptide)
peptide: WCPPKAMTQLGIKAC
notes: Group II
B8: phage C4 (SCEKRYGIEFCT) (peptide)
peptide: SCEKRYGIEFCT
notes: Group III
B9: phage C4 (…) (peptide)
peptide: SCEKRYGIEFCT

How the values were obtained:
[1] = target: biotinylated Gβ1γ2 mutant Arg314Ala (rat) (UniProt P54311); assay: flow cytometry, dissociation of Fαi1 from immobilized b-β1γ2
[2] = target: biotinylated Gβ1γ2 mutant Asn230Ala (rat) (UniProt P54311); assay: as above
[3] = target: biotinylated Gβ1γ2 mutant Asp186Ala (rat) (UniProt P54311); assay: as above
[4] = target: biotinylated Gβ1γ2 mutant Leu117Ala (rat) (UniProt P54311); assay: as above
[5] = target: biotinylated Gβ1γ2 mutant Lys57Ala (rat) (UniProt P54311); assay: as above
[6] = target: biotinylated Gβ1γ2 mutant Met101Ala (rat) (UniProt P54311); assay: as above
[7] = target: biotinylated Gβ1γ2 mutant Met188Ala (rat) (UniProt P54311); assay: as above
[8] = target: biotinylated Gβ1γ2 mutant Trp332Ala (rat) (UniProt P54311); assay: as above
[9] = target: biotinylated Gβ1γ2 mutant Trp99Ala (rat) (UniProt P54311); assay: as above
[10] = target: biotinylated Gβ1γ2 mutant Tyr145Ala (rat) (UniProt P54311); assay: as above
[11] = target: biotinylated Gβ1γ2 mutant Tyr59Ala (rat) (UniProt P54311); assay: as above
[12] = target: biotinylated Gβ1γ2, wild-type (BAP-rat Gβ1 with Gγ2) (rat) (UniProt P54311); assay: as above
[13] = target: biotinylated Gβ1γ2 mutant Arg314Ala (rat) (UniProt P54311); assay: phage ELISA, % of wild-type b-βγ
[14] = target: biotinylated Gβ1γ2 mutant Asn230Ala (rat) (UniProt P54311); assay: phage ELISA, % of wild-type b-βγ
[15] = target: biotinylated Gβ1γ2 mutant Asp246Ser (rat) (UniProt P54311); assay: phage ELISA, % of wild-type b-βγ
[16] = target: biotinylated Gβ1γ2 mutant His311Ala (rat) (UniProt P54311); assay: phage ELISA, % of wild-type b-βγ
[17] = target: biotinylated Gβ1γ2 mutant His62Ala (rat) (UniProt P54311); assay: phage ELISA, % of wild-type b-βγ
[18] = target: biotinylated Gβ1γ2 mutant Leu117Ala (rat) (UniProt P54311); assay: phage ELISA, % of wild-type b-βγ
[19] = target: biotinylated Gβ1γ2 mutant Lys57Ala (rat) (UniProt P54311); assay: phage ELISA, % of wild-type b-βγ
[20] = target: biotinylated Gβ1γ2 mutant Met101Ala (rat) (UniProt P54311); assay: phage ELISA, % of wild-type b-βγ
[21] = target: biotinylated Gβ1γ2 mutant Met188Ala (rat) (UniProt P54311); assay: phage ELISA, % of wild-type b-βγ
[22] = target: biotinylated Gβ1γ2 mutant Phe292Ala (rat) (UniProt P54311); assay: phage ELISA, % of wild-type b-βγ
[23] = target: biotinylated Gβ1γ2 mutant Trp332Ala (rat) (UniProt P54311); assay: phage ELISA, % of wild-type b-βγ
[24] = target: biotinylated Gβ1γ2 mutant Trp99Ala (rat) (UniProt P54311); assay: phage ELISA, % of wild-type b-βγ
[25] = target: biotinylated Gβ1γ2 mutant Tyr145Ala (rat) (UniProt P54311); assay: phage ELISA, % of wild-type b-βγ
[26] = target: biotinylated Gβ1γ2 mutant Arg314Ala (rat) (UniProt P54311); assay: phage ELISA, % of wild-type b-βγ; remark: listed apart in the source
[27] = target: biotinylated Gβ1γ2 mutant Asn230Ala (rat) (UniProt P54311); assay: phage ELISA, % of wild-type b-βγ; remark: listed apart in the source
[28] = target: biotinylated Gβ1γ2 mutant Asp186Ala (rat) (UniProt P54311); assay: phage ELISA, % of wild-type b-βγ
[29] = target: biotinylated Gβ1γ2 mutant Asp246Ser (rat) (UniProt P54311); assay: phage ELISA, % of wild-type b-βγ; remark: listed apart in the source
[30] = target: biotinylated Gβ1γ2 mutant His311Ala (rat) (UniProt P54311); assay: phage ELISA, % of wild-type b-βγ; remark: listed apart in the source
[31] = target: biotinylated Gβ1γ2 mutant Leu117Ala (rat) (UniProt P54311); assay: phage ELISA, % of wild-type b-βγ; remark: listed apart in the source
[32] = target: biotinylated Gβ1γ2 mutant Lys57Ala (rat) (UniProt P54311); assay: phage ELISA, % of wild-type b-βγ; remark: listed apart in the source
[33] = target: biotinylated Gβ1γ2 mutant Met101Ala (rat) (UniProt P54311); assay: phage ELISA, % of wild-type b-βγ; remark: listed apart in the source
[34] = target: biotinylated Gβ1γ2 mutant Met188Ala (rat) (UniProt P54311); assay: phage ELISA, % of wild-type b-βγ; remark: listed apart in the source
[35] = target: biotinylated Gβ1γ2 mutant Trp332Ala (rat) (UniProt P54311); assay: phage ELISA, % of wild-type b-βγ; remark: listed apart in the source
[36] = target: biotinylated Gβ1γ2 mutant Trp99Ala (rat) (UniProt P54311); assay: phage ELISA, % of wild-type b-βγ; remark: listed apart in the source
[37] = target: biotinylated Gβ1γ2 mutant Tyr145Ala (rat) (UniProt P54311); assay: phage ELISA, % of wild-type b-βγ; remark: listed apart in the source
[38] = target: biotinylated Gβ1γ2 mutant Tyr59Ala (rat) (UniProt P54311); assay: phage ELISA, % of wild-type b-βγ
[39] = target: T1, biotinylated Gβ1γ2, wild-type (BAP-rat Gβ1 with Gγ2) (rat, UniProt P54311 1-340; P63212 2-68, biotin on the lysine acceptor residue of the BAP); assay: phage ELISA on immobilized b-βγ
T1 construct: immobilized on streptavidin in the assays; also called b-βγ; b-Gβ1γ2; not shown: 20 amino acid biotin acceptor peptide (BAP) fused to the N-terminus
Method: Phage ELISA assays used to assess peptide binding to wild-type and mutant b-βγ were performed according to standard methods (Smrcka and Scott (2002) Methods Enzymol. 344:557-76). Briefly, 1 μg streptavidin was immobilized in the well of a […] overnight at 4° C. The wells were blocked with 100 μL of 2% bovine serum albumin (BSA) in Tris-buffered saline (TBS) for 1 hour at 4° C. followed by three washes of 1×TBS/0.5% TWEEN®. […] The wells were washed, followed by the addition of 1×10⁶ to 1×10¹⁰ phage particles and incubated at 4° C. for 3 hours. The wells were then washed six times with TBS/0.5% TWEEN® followed by addition of 40 μL of 1:5000 dilution of anti-M13 antibody (Pharmacia, Uppsala, Sweden) and incubated at room temperature for 1 hour. The wells were washed, followed by the addition of 40 μL of (2,2′-Azino-bis(3-ethylbenzthiazoline)-6-sulfonic acid (ABTS) and the […] reaction was monitored at 405 nm. Non-specific binding was subtracted for each reading.

Chain of biotinylated Gβ1γ2 mutant Asp246Ser (rat) (P54311 whole entry D246S, chain 1 of 2): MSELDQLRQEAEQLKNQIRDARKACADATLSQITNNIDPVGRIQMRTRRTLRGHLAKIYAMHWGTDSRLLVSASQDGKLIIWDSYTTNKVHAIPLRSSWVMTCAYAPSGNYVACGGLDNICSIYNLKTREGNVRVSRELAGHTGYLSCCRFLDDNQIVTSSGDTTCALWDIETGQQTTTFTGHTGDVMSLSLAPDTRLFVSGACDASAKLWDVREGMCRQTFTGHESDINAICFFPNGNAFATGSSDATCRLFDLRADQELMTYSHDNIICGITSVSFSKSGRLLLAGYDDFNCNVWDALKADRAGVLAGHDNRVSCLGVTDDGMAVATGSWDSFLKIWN
Chain of biotinylated Gβ1γ2 mutant Asp246Ser (rat) (P63212 2-68, chain 2 of 2, further chain): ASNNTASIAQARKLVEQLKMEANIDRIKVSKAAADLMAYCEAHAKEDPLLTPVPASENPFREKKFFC
Chain of biotinylated Gβ1γ2 mutant Tyr59Ala (rat) (P54311 whole entry Y59A, chain 1 of 2): as the sequence (P54311 whole entry D246S, chain 1 of 2) above, with Y59A, S246D counted along it
Chain of biotinylated Gβ1γ2 mutant Tyr59Ala (rat) (P63212 2-68, chain 2 of 2, further chain): as the sequence (P63212 2-68, chain 2 of 2, further chain) above
Chain of biotinylated Gβ1γ2 mutant Trp99Ala (rat) (P54311 whole entry W99A, chain 1 of 2): as the sequence (P54311 whole entry D246S, chain 1 of 2) above, with W99A, S246D counted along it
Chain of biotinylated Gβ1γ2 mutant Trp99Ala (rat) (P63212 2-68, chain 2 of 2, further chain): as the sequence (P63212 2-68, chain 2 of 2, further chain) above
Chain of biotinylated Gβ1γ2 mutant Arg314Ala (rat) (P54311 whole entry R314A, chain 1 of 2): as the sequence (P54311 whole entry D246S, chain 1 of 2) above, with S246D, R314A counted along it
Chain of biotinylated Gβ1γ2 mutant Arg314Ala (rat) (P63212 2-68, chain 2 of 2, further chain): as the sequence (P63212 2-68, chain 2 of 2, further chain) above
Chain of biotinylated Gβ1γ2 mutant Trp332Ala (rat) (P54311 whole entry W332A, chain 1 of 2): as the sequence (P54311 whole entry D246S, chain 1 of 2) above, with S246D, W332A counted along it
Chain of biotinylated Gβ1γ2 mutant Trp332Ala (rat) (P63212 2-68, chain 2 of 2, further chain): as the sequence (P63212 2-68, chain 2 of 2, further chain) above
Chain of biotinylated Gβ1γ2 mutant Leu117Ala (rat) (P54311 whole entry L117A, chain 1 of 2): as the sequence (P54311 whole entry D246S, chain 1 of 2) above, with L117A, S246D counted along it
Chain of biotinylated Gβ1γ2 mutant Leu117Ala (rat) (P63212 2-68, chain 2 of 2, further chain): as the sequence (P63212 2-68, chain 2 of 2, further chain) above
Chain of biotinylated Gβ1γ2 mutant Lys57Ala (rat) (P54311 whole entry K57A, chain 1 of 2): as the sequence (P54311 whole entry D246S, chain 1 of 2) above, with K57A, S246D counted along it
Chain of biotinylated Gβ1γ2 mutant Lys57Ala (rat) (P63212 2-68, chain 2 of 2, further chain): as the sequence (P63212 2-68, chain 2 of 2, further chain) above
Chain of biotinylated Gβ1γ2 mutant Asp186Ala (rat) (P54311 whole entry D186A, chain 1 of 2): as the sequence (P54311 whole entry D246S, chain 1 of 2) above, with D186A, S246D counted along it
Chain of biotinylated Gβ1γ2 mutant Asp186Ala (rat) (P63212 2-68, chain 2 of 2, further chain): as the sequence (P63212 2-68, chain 2 of 2, further chain) above
Chain of biotinylated Gβ1γ2 mutant Met188Ala (rat) (P54311 whole entry M188A, chain 1 of 2): as the sequence (P54311 whole entry D246S, chain 1 of 2) above, with M188A, S246D counted along it
Chain of biotinylated Gβ1γ2 mutant Met188Ala (rat) (P63212 2-68, chain 2 of 2, further chain): as the sequence (P63212 2-68, chain 2 of 2, further chain) above
Chain of biotinylated Gβ1γ2 mutant Asn230Ala (rat) (P54311 whole entry N230A, chain 1 of 2): as the sequence (P54311 whole entry D246S, chain 1 of 2) above, with N230A, S246D counted along it
Chain of biotinylated Gβ1γ2 mutant Asn230Ala (rat) (P63212 2-68, chain 2 of 2, further chain): as the sequence (P63212 2-68, chain 2 of 2, further chain) above
Chain of biotinylated Gβ1γ2 mutant His311Ala (rat) (P54311 whole entry H311A, chain 1 of 2): as the sequence (P54311 whole entry D246S, chain 1 of 2) above, with S246D, H311A counted along it
Chain of biotinylated Gβ1γ2 mutant His311Ala (rat) (P63212 2-68, chain 2 of 2, further chain): as the sequence (P63212 2-68, chain 2 of 2, further chain) above

Row | Molecule | % of Wild-Type Signal [26] | % of Wild-Type Signal [27] | % of Wild-Type Signal [28] | % of Wild-Type Signal [29] | % of Wild-Type Signal [30] | % of Wild-Type Signal [31] | % of Wild-Type Signal [32] | % of Wild-Type Signal [33] | % of Wild-Type Signal [34] | % of Wild-Type Signal [35] | % of Wild-Type Signal [36] | % of Wild-Type Signal [37] | % of Wild-Type Signal [38] | binding result [39] | further results
1 | Fluorescein-labeled Gαi1 | – | – | – | – | – | – | – | – | – | – | – | – | – | – | koff [1]: 0.00197 s⁻¹; koff [2]: 0.00247 s⁻¹; koff [3]: 0.00267 s⁻¹; koff [4]: 0.00602 s⁻¹; koff [5]: 0.0024 s⁻¹; koff [6]: 0.0019 s⁻¹; koff [7]: 0.00203 s⁻¹; koff [8]: 0.00502 s⁻¹; koff [9]: 0.0048 s⁻¹; koff [10]: 0.00258 s⁻¹; koff [11]: 0.00302 s⁻¹; koff [12]: 0.00205 s⁻¹
2 | phage displaying SIGK peptide | – | – | – | – | – | – | – | – | – | – | – | – | – | – | % of Wild-Type Signal [13]: 50.2%; % of Wild-Type Signal [14]: 22.4%; % of Wild-Type Signal [15]: 66.5%; % of Wild-Type Signal [16]: 94.3%; % of Wild-Type Signal [17]: 111%; % of Wild-Type Signal [18]: 2.1%; % of Wild-Type Signal [19]: 18.6%; % of Wild-Type Signal [20]: 32.2%; % of Wild-Type Signal [21]: 2.5%; % of Wild-Type Signal [22]: 109%; % of Wild-Type Signal [23]: 7.1%; % of Wild-Type Signal [24]: 66%; % of Wild-Type Signal [25]: 0.8%
3 | B1 | 2.8% | 19.8% | 1.4% | 2.3% | 3% | 5.2% | 0.1% | 70.5% | 4% | -0.3% | 1.2% | 88% | 0.3% | binds | –
4 | B2 | 76.5% | 33.5% | 45.7% | 56.3% | 58.7% | 28.5% | 5.6% | 47.8% | 97.2% | 3.2% | 39% | 16.7% | 73.8% | binds | –
5 | B3 | 2.4% | 27.6% | 2.4% | 0.6% | 23.6% | 2.1% | -4.5% | 6% | 8.5% | -1.5% | 32.6% | 0.1% | -2% | binds | –
6 | B4 | 1.3% | 0% | 267% | 5.9% | 11.7% | 1.5% | -1.2% | 157% | -0.7% | 4.7% | -1% | 4.5% | -1.7% | binds | –
7 | B5 | 50.2% | 22.4% | 14.4% | 66.5% | 93.4% | 2.1% | 18.6% | 26.8% | 2.5% | 7.1% | 66% | 0.8% | 24.7% | binds | –
8 | B6 | 8.3% | 4.1% | 35% | 2% | 30.5% | 10% | 3.6% | -4.2% | -5.7% | -0.3% | -0.5% | 2.7% | 8.5% | binds | –
9 | B7 | 3.9% | 60% | 3.6% | 6.3% | 6.1% | 3.8% | 3% | 1.1% | 9.9% | 1.6% | 10.1% | 1.9% | 3.6% | binds | –
10 | B8 | – | – | – | – | – | – | – | – | – | – | – | – | – | binds | –
11 | B9 | 1.4% | 11.5% | 51.3% | 35.8% | 36.5% | 18.4% | -0.2% | 61.2% | 128% | 1.7% | 67% | 4.4% | 7.6% | – | –
